In the assay the target is T1, histidine tagged SFTSV Gn-Cκ (Gn ectodomain, strain Gangwon/Korea/2012) (SFTSV (Dabie bandavirus) strain …, UniProt U3GR55, strain).
T1 construct: source: HEK 293F or Expi293F, transfected, purified
Kind of assay: SPR; Biacore T200, […]; dissociation 5 min in PBS with 0.005% Tween20. The settings on record: both partners purified.

The record followed here is PMC6380599 (PLoS Pathogens, 2019).

B1: Ab10 IgG1 antibody (antibody, V domains shown)
VH: EVQLVESGGGVVQPGRSLRLSCAASGFTFSGYGIHWVRQAPGKGLEWVALISYDGSNKYYADSVKGRFTISRDNSKNTLYLQMNSLRAEDTAVYYCAKDRDYFGSGFFDYWGQGTLVTVSS
VL: ELVMTQSPSSLSASVGDTVTITCRASQSIYTYLNWYHQTPGKAPKLLISAASSLQSGVPSRFSGSGSGTDFTLTISSLQPEDFATYYCQQYADVPVTFGGGTKLEIK
notes: also called Ab10 mAb; human IgG1 monoclonal antibody Ab10; source: HEK 293F, transfected, purified from culture supernatant (MabSelect)
As for B1, the dissociation constant Kd is 0.104 nM, the koff is 7.7e-05 s⁻¹ and the on-rate constant (kon) was 740000 M⁻¹ s⁻¹.

Usually Kd stands for the concentration at which binding is half-saturated. Higher therefore signals a looser complex. By koff is commonly meant a measure of how fast the partners let go of each other. In general, kon refers to the rate constant with which the complex forms. A lower kon goes with slower complex formation.
